# PMC9396027, “Comparative transcriptome analysis of MDBK cells reveals that BoIFN-γ augmented host immune responses to bovine herpesvirus 1 infection” (Frontiers in Microbiology, 2022)
# B1: Bovine interferon gamma (BoIFN-γ) (ligand, UniProt P07353 24-166, looked up)
# chain: QGQFFREIENLKEYFNASSPDVAKGGPLFSEILKNWKDESDKKIIQSQIVSFYFKLFENLKDNQVIQRSMDIIKQDMFQKFLNGSSEKLEDFKKLIQIPVDDLQIQRKAINELIKVMNDLSPKSNLRKRKRSQNLFRGRRASM
# notes: Bovine interferon gamma; synthesised gene encoding 122 amino acids, according to GenBank EU276066, nucleotides 24-390; monomer 14.2 kDa; Cloned into pET-21a(+); 122 amino acids is shorter than the mature protein as I recall it, so the construct is probably truncated; also called Bovine IFN-γ; bovine interferon gamma dimer protein
# Target: the molecule itself
# Assay: SEC; Superdex 200 size exclusion column, refolded BoIFN-γ; peak mass compared with the monomer mass (14.2 kDa)
protein,measurement,value
B1,stoichiometry N,2
